# B1: ETP-mAb4: rabbit monoclonal anti-human endotrophin antibody selected for further study; VH SEQ ID NO: 125, VL SEQ ID NO: 126 (antibody, V domains shown)
# VH: SSRVKESGGDLVKPGASLTLTCKASGFSFSSGYYICWVRQAPGKGLEWIACIYGGNNNPYYANWVNGRFTTSKTSSTTVTLQMTNLTGADTATYFCARKDINIGGAYELWGPGTLVTISS
# VL: ELVMTQTPASVSEPVGGTVTINCQASQSISSSYLSWYQQKPGQPPKLLIYKASTLASGVPSRFKGSGSGTQFSLTISDLECADAATYYCQYSDWANSYGNAFGGGTEVVVK
# Tested on: MCF7 breast cancer cells
# Test: MCF7 cisplatin/endotrophin cell survival (MTS) neutralization assay
# Type: cell-based, human
# Protocol: FIGS. 3A-D. Generation and screening of anti-human endotrophin. (FIG. 3A) MCF7 breast cancer cells (20,000 cells) were plated into a 96-well plate. Cells were then treated with 10 μm cisplatin, 10 μm cisplatin/100 ng/mL endotrophin, and 10 μm cisplatin/100 ng/mL endotrophin/10 μg/mL ETPmAb4 for 24 hr. Cell survival was measured using a CellTiter One Solution Cell Proliferation Assay. Statistical significance of the curve fit parameters was tested using the extra sum of squares F test with P<0.05 considered significant. Goodness of curve fit is described using r2. Mean±SEM, n=3. (FIG. 3B) ETP transfected MCF7 cells (100,000 cells) were plated into a 24-well plate with 500 μL media. Then 4 μL of supernatant was loaded for Western blotting. It is estimated that approximately 1 ng of ETP was loaded, compared with the standard ETP (2 ng band). The concentration yields approximately 0.052 pg secreted ETP/hr/cell. […] ETP expression was determined by qRT-PCR and normalized to GAPDH. […] Migrated cells were counted after a 2 hr incubation. In all cases, data was represented as mean±SD, and statistical significance (*** p<0.0001) was calculated using an unpaired Student's t-test.
# MTS assay screening endotrophin monoclonal antibodies. […] Cell survival was measured using a CellTiter One Solution Cell Proliferation Assay. […] The plate was then read at 490 nm using a Sunrise microplate reader (TECAN). […]
molecule,measurement,setting,value
B1,neutralization of endotrophin-mediated MCF-7 cell survival,"10 μm cisplatin, 100 ng/mL endotrophin, 10 μg/mL antibody, 24 hr",completely neutralize
same,restoration of cisplatinum susceptibility of endotrophin-exposed MCF-7 cells,cisplatin plus endotrophin,"forced the cells to become susceptible to cisplatinum, in a dose-dependent manner"

# Source: US12331110B2, “Monoclonal antibodies against endotrophin and the use thereof” (THE BOARD OF REGENTS OF THE UNIVERSITY OF TEXAS SYSTEM, priority 2018, dated 2025)
